# From ChEMBL document CHEMBL1135342, “Synthesis and evaluation of thymidine-5'-O-monophosphate analogues as inhibitors of Mycobacterium tuberculosis thymidylate kinase” (Bioorg Med Chem Lett, 2002)
# B1: Thymidylate kinase (Mycobacterium tuberculosis), P9WKE1 (protein)
# chain: MLIAIEGVDGAGKRTLVEKLSGAFRAAGRSVATLAFPRYGQSVAADIAAEALHGEHGDLASSVYAMATLFALDRAGAVHTIQGLCRGYDVVILDRYVASNAAYSAARLHENAAGKAAAWVQRIEFARLGLPKPDWQVLLAVSAELAGERSRGRAQRDPGRARDNYERDAELQQRTGAVYAELAAQGWGGRWLVVGADVDPGRLAATLAPPDVPS
# What was measured:
# [1] = substrate: O=c1ccn([C@H]2C[C@H](O)[C@@H](COP(=O)(O)O)O2)c(=O)[nH]1; assay: (§1) Compound was tested for binding affinity against Mycobacterium tuberculosis thymidine monophosphate kinase
# [2] = substrate: Cc1cn(-c2ccc(COP(=O)(O)O)o2)c(=O)[nH]c1=O; assay: as §1
# [3] = substrate: O=c1[nH]c(=O)n([C@H]2C[C@H](O)[C@@H](COP(=O)(O)O)O2)cc1F; assay: as §1
# [4] = substrate: Cc1cn([C@H]2C[C@H](F)[C@@H](COP(=O)(O)O)O2)c(=O)[nH]c1=O; assay: as §1
# [5] = substrate: O=c1[nH]c(=O)n([C@H]2C[C@H](O)[C@@H](COP(=O)(O)O)O2)cc1I; assay: as §1
# [6] = substrate: O=c1[nH]c(=O)n([C@H]2C[C@H](O)[C@@H](COP(=O)(O)O)O2)cc1Br; assay: as §1
# [7] = substrate: Cc1cn([C@H]2C[C@H](O)[C@@H](COP(=O)(O)O)O2)c(=O)[nH]c1=O; assay: as §1
protein,measurement,setting,value
B1,Km,[1],2100 µM
same,Km,[2],140 µM
same,Km,[3],420 µM
same,Km,[4],30 µM
same,Km,[5],140 µM
same,Km,[6],33 µM
same,Km,[7],4.5 µM
